10 sequences from the Immune Epitope Database (IEDB) can be followed below.

Test [1] concerns the target HLA-A*68:23. As to the kind of experiment: IEDB peptide-MHC binding, purified MHC/competitive/fluorescence; filed as Kd, often an IC50 or EC50 that approximates it; ≥ and ≤ were set here for values at or beyond the usual limits of such assays.
For test [2], the target named is HLA-B*15:42. Described as above.
Test [3] addresses HLA-B*45:06. The test is described as above.
Test [4] addresses HLA-B*83:01. The description is as above.
In test [5] the target is HLA-A*31:01. The test is described as above. The following applies: source organism: Escherichia coli.
Test [6] has as its target HLA-B*15:01. The description is as above. The following applies: source organism: Escherichia coli.
Test [7] deals with HLA-A*03:01. Described as above. The following applies: source organism: Escherichia coli.
Test [8] addresses HLA-C*06:02. As to the kind of experiment: IEDB peptide-MHC binding, purified MHC/direct/fluorescence; filed as Kd, often an IC50 or EC50 that approximates it; ≥ and ≤ were set here for values at or beyond the usual limits of such assays.
The target in test [9] is HLA-A*26:01. Described as above. The following applies: source organism: Yersinia pestis.
The target in test [10] is HLA-B*08:01. The test is described as above. The following applies: source organism: Yersinia pestis.
In test [11] the target is HLA-A*31:01. The description is as above. The following applies: source organism: Yersinia pestis.
The target of test [12] is HLA-B*46:01. Described as above. The following applies: source organism: Yersinia pestis.
For test [13], the target named is HLA-B*40:01. Described as above. The following applies: source organism: Yersinia pestis.
Test [14] deals with HLA-A*69:01. Described as above. The following applies: source organism: Yersinia pestis.
Test [15] addresses HLA-B*58:01. The test is described as above. The following applies: source organism: Yersinia pestis.
The target in test [16] is HLA-B*07:02. The test is described as above. The following applies: source organism: Yersinia pestis.
Test [17] has as its target HLA-B*15:01. The description is as above. The following applies: source organism: Yersinia pestis.
Test [18] deals with HLA-A*11:01. Described as above. The following applies: source organism: Yersinia pestis.
Test [19] addresses HLA-A*03:01. The test is described as above. The following applies: source organism: Yersinia pestis.
Test [20] deals with HLA-A*02:01. The description is as above. The following applies: source organism: Yersinia pestis.
The target in test [21] is HLA-B*15:02. The description is as above.
For test [22], the target named is HLA-B*27:05. The description is as above. The following applies: source organism: Yersinia pestis.
The target in test [23] is HLA-A*24:02. As to the kind of experiment: IEDB peptide-MHC binding, purified MHC/competitive/fluorescence; filed as Kd, often an IC50 or EC50 that approximates it; ≥ and ≤ were set here for values at or beyond the usual limits of such assays.
The target in test [24] is HLA-C*04:01. The test can be described thus: IEDB peptide-MHC binding, purified MHC/direct/fluorescence; filed as Kd, often an IC50 or EC50 that approximates it; ≥ and ≤ were set here for values at or beyond the usual limits of such assays. The following applies: source organism: Influenza A virus (A/turkey/Ohio/313053/2004(H3N2)).
The target of test [25] is HLA-B*27:05. The test can be described thus: IEDB peptide-MHC binding, purified MHC/competitive/fluorescence; ≥ and ≤ were set here for values at or beyond the usual limits of such assays.
The target of test [26] is HLA-B*35:01. The test can be described thus: IEDB peptide-MHC binding, purified MHC/direct/fluorescence; filed as Kd, often an IC50 or EC50 that approximates it; ≥ and ≤ were set here for values at or beyond the usual limits of such assays. The following applies: source organism: Yersinia pestis.
Test [27] addresses HLA-A*01:01. The description is as above. The following applies: source organism: Yersinia pestis.
Test [28] concerns the target HLA-B*44:02. The description is as above. The following applies: source organism: Yersinia pestis.
The target in test [29] is HLA-B*40:13. The test can be described thus: IEDB peptide-MHC binding, purified MHC/competitive/fluorescence; filed as Kd, often an IC50 or EC50 that approximates it; ≥ and ≤ were set here for values at or beyond the usual limits of such assays.
In test [30] the target is HLA-A*32:07. The test is described as above. The following applies: source organism: Campylobacter jejuni subsp. jejuni NCTC 11168 = ATCC 700819.
Test [31] concerns the target HLA-B*46:01. Described as above. The following applies: source organism: Campylobacter jejuni subsp. jejuni NCTC 11168 = ATCC 700819.
For test [32], the target named is HLA-B*08:02. As to the kind of experiment: IEDB peptide-MHC binding, purified MHC/direct/fluorescence; filed as Kd, often an IC50 or EC50 that approximates it; ≥ and ≤ were set here for values at or beyond the usual limits of such assays. The following applies: source organism: Campylobacter jejuni subsp. jejuni 81116.
Test [33] deals with HLA-B*27:20. As to the kind of experiment: IEDB peptide-MHC binding, purified MHC/competitive/fluorescence; filed as Kd, often an IC50 or EC50 that approximates it; ≥ and ≤ were set here for values at or beyond the usual limits of such assays. The following applies: source organism: Escherichia coli 536.
Test [34] has as its target HLA-B*40:01. The description is as above. The following applies: source organism: Escherichia coli 536.
[35] abbreviates: source organism: Mycobacterium tuberculosis variant bovis BCG str. Pasteur 1173P2.
Where [36] appears, read: source organism: Campylobacter jejuni subsp. jejuni NCTC 11168 = ATCC 700819.
[37] abbreviates: source organism: Escherichia coli 536.

As to TTFDLTLRR, the Kd in [1] (setting [35]) was 12.1 nM; in test [2] (setting [35]), not below 5000 nM; in test [3] (setting [35]) it was not below 5000 nM; in [4] (setting [35]), not below 5000 nM.
With RYWRLRYRI, the Kd in [5] is 2.1 nM; in test [6] it was not below 20000 nM; in [7] it was not below 20000 nM; in test [8] (source organism: Escherichia coli), not below 20000 nM.
In the case of RQLESRLGY, the Kd in test [9] was not below 20000 nM; in [10], not below 20000 nM; in [11], 288 nM; in test [12], not below 20000 nM; in [13], 3740 nM; in test [14] it was not below 20000 nM. Moreover, the Kd in test [15] is not below 20000 nM; in [16], not below 20000 nM; in test [17], 146 nM; in test [18] it was 130 nM; in test [19] it was 61.6 nM; in test [20], not below 20000 nM. In addition, the results for the Kd in test [21] (source organism: Yersinia enterocolitica subsp. enterocolitica 8081) and in [22] were 77 nM and 65.6 nM, respectively.
As for RYSGFVRTL, the Kd in [23] (source organism: Influenza A virus (A/turkey/Ohio/313053/2004(H3N2))) was 1.1 nM; in [24] it was not below 20000 nM.
The sequence RRFFPYYV showed an IC50 in test [25] (source organism: Homo sapiens) of 3200 nM.
MQLQLNCAY: the Kd in test [9] is not below 20000 nM; in test [10], not below 20000 nM; in test [11], 6350 nM; in test [12], not below 20000 nM; in test [13], 705 nM; in test [14] it was 1330 nM. Besides, the Kd in test [26] was 33.7 nM; in test [16], not below 10000 nM; in [27] it was 2770 nM; in [28] it was not below 20000 nM; in test [17], 112 nM; in test [18], not below 20000 nM. The Kd in test [19] is not below 20000 nM; in test [20], not below 20000 nM; in test [21] (source organism: Yersinia pestis CA88-4125), 15 nM; in test [22] it was not below 20000 nM.
As for MYSDFHFI, the Kd in test [23] (source organism: Influenza A virus (A/X-31(H3N2))) was 146 nM.
As for GGAAICGKY, in test [25] (source organism: Hepacivirus hominis), the IC50 is not below 750000 nM.
Consider YMKKRYEEF, for which the Kd in test [29] (setting [36]) is 326 nM; in [30], 232 nM; in test [31], 188 nM; in test [2] (setting [36]), not below 5000 nM; in test [3] (setting [36]), not below 5000 nM; in [4] (setting [36]), not below 5000 nM. Also, the Kd in [8] (setting [36]) is not below 20000 nM; in [32], 127 nM.
For KEMGFSPRL, the Kd in test [33] is 176 nM; in test [29] (setting [37]), 33.6 nM; in test [1] (setting [37]), 121 nM; in test [2] (setting [37]), not below 5000 nM; in [34] it was 10.3 nM; in test [3] (setting [37]) it was not below 5000 nM. In addition, the Kd in test [4] (setting [37]) is not below 5000 nM.

For orientation: Kd means the equilibrium constant for the complex coming apart. A low value points to a tighter complex. In general, IC50 refers to the concentration that gives 50% inhibition.
